According to patent US20100144607 (published 2010):
Bridge positions count the residues as written; N and C are the ends. Ends that are not written are not given here.

Each binder was assayed against trypsin (assay: other, trypsin inhibition).
In the case of VQQCSEIAGAKPC (disulfide 4-13) [Seq04], the Ki is reported as 42 nM.
For IPRCRKMPGVKMC (disulfide 4-13; not fully specified) [Seq07], the Ki was 20 nM.
IPRCRKMPGVKMC (disulfide 4-13; not fully specified) [Seq09] showed a Ki of 21.8 nM.
IPRCRKMPGVKMC (disulfide 4-13; not fully specified) [Seq08] gave a Ki of 24.8 nM.
IPRCRAMPGVKMC (disulfide 4-13) [Seq06] was tested, and the Ki was 24.2 nM.
In the case of LHRCDKIADAKPC (disulfide 4-13) [Seq05], the Ki is reported as 44 nM.
For VEQCTIIGDAKDC (disulfide 4-13) [Seq03], the Ki was 63.6 nM.
Work on VEQCTIIGDEKDC (disulfide 4-13) [Seq02] yielded a Ki of 24 nM.
IPRCRKMPGVKMC (disulfide 4-13) [Seq01] was tested, and the Ki was 22.5 nM.
